Results reported in publication PMC9972910.

What was measured:
[1] = target: LptB2FG complex (Escherichia coli) (UniProt P0A9V1); experiment: SPR; LptB2FG or LptB2F^R212GG covalently immobilised, increasing concentrations of monomeric LptA flowed over; fitted at equilibrium; details in Text S1
[2] = target: LptB2F^R212GG complex (Escherichia coli) (UniProt P0A9V1); experiment: as above

Kd [1]: 74 µM | Kd [2]: 81 µM
Substance: monomeric version of LptA (from UniProt P0ADV1 28-159) (domain or fragment)
